In patent US20160215065A1 (Genentech, published 2016):

Columns and labels:
[1] = molecular target: T1, recombinant mouse NSP4 (form not stated) (mouse, UniProt Q14B24 40-284, limits assumed); test: ratio of phage IC50 values against the parental clone 51.WT
T1 construct: also called mNSP4; soluble mNSP4
T1 sequence (looked up): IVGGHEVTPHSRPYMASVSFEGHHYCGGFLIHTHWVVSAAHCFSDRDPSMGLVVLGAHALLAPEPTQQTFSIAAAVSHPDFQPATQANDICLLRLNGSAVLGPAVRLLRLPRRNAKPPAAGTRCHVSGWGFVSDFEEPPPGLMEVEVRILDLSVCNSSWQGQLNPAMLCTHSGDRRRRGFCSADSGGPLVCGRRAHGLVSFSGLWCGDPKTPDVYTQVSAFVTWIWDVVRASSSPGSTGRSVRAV

[2] = molecular target: T1, recombinant mouse NSP4 (form not stated); test: phage competition binding assay (phage IC50); soluble mNSP4 competitor

B1: affinity matured anti-NSP4 antibody clone 51.59 (Fab, V domains shown)
VH: EVQLVESGGGLVQPGGSLRLSCAASGFTFSGSGIHWVRQAPGKGLEWVAWISPTGGNTYYADSVKGRFTISADTSKNTAYLQMNSLRAEDTAVYYCARVFFHNVAFDYWGQGTLVTVSS
VL: DIQMTQSPSSLSASVGDRVTITCRASQDVSTAVAWYQQKPGKAPKLLIYSASFLYSGVPSRFSGSGSGTDFTLTISSLQPEDFATYYCQQNFSSPPTFGQGTKVEIKR
Affinity improvement to mNSP4 [1]: 196 fold
IC50 [2]: 0.095 nM
